Results published in US20260125454A1 (SHANGHAI JUNSHI BIOSCIENCES, published 2026).
Like-named read-outs stand apart in the source and are kept apart here.

T1: Biotin-huCGRPaSA (human, not fully specified; biotin (position not given))
T1 construct: exact construct ('aSA') not explained; also called Biotin CGRPaSA; full-length (1-37) CGRP
T1 peptide: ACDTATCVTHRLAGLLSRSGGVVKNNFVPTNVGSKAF

B1: C48 (antibody, V domains shown)
VH: EVQLQQSGPEVVKPGASVRISCQASGYTFTDYNMHWVKQSHGKSLEWIGYIFPYNGVAVYNRKFRSKATLIIDKSSTTAYMELRSLTSEDSAVYYCAREGLGGYWGQGTTLTVSS
VL: DIVLTQSPASLAVSLGQRATISCKASQNIDYDGYAYLNWYQQKPGQPPKVLIYSVFNLESGIPARFSGSGSGTDFTLNIHPVEEEDAATYYCQQSNEFPYTFGGGTKLEVK
notes: 1B2-HC + 1A2-LC2; chimeric, human constant regions
B2: C97 (antibody, V domains shown)
VH: EVQLQQSGPELVKPGASVKISCKASGYTFTDYNMHWVKQSHGKSLEWIGYVYPYNGGSAYNQKFKSKATLTVDTSSSIAYMDLHSLTSEDSAVYYCAREGLGGYWGQGTTLAVSS
VL: DIVLTQSPASLAVSLGQRATISCKASQNIDFDGYAYMNWYQHKPGQPPRVLIYSVFNLESGIPARFSGSGSGTDFTLNIHPVEEEDAATYYCQQSHEVPYTFGGGTNLEIK
notes: 2A2-HC + 1F5-LC1; chimeric, human constant regions
B3: C69 (antibody, V domains shown)
VH: EVQLQQSGPEVVKPGASVRISCQASGYTFTDYNMHWVKQSHGKSLEWIGYIFPYNGVAVYNRKFRSKATLIIDKSSTTAYMELRSLTSEDSAVYYCAREGLGGYWGQGTTLTVSS
VL: DIVLTQSPDSLAVSLGQRATISCKASQNIDYGGYSYMNWYQQKPGQPPKVLIYSVFNLESGIPARFSGSGSGTDFTLTIHPVEEEDAATYYCQQSNEAPYTFGGGTKLEIR
notes: 1B2-HC + 3H10-LC2; chimeric, human constant regions
B4: C85 (antibody, V domains shown)
VH: EVQLQQSGPELVKPGASVKISCKTSGYTFIDFNMHWVKQSHGKSLEWIGYIYPYNGDVVYNQNFTNKATLTVDSSSSTAYMELRRVTSEDSAIYYCAREGLGGYWGQGTTLTVSS
VL: DIVLTQSPASLAVSLGQRATISCKASQNIDYDGYTYLNWYQQKPGQPPKVLIYSIFNLESGIPARFSGSGSGTDFTLNIHPVEEEDAATYYCQQSNEVPYTFGGGTKLEIK
notes: 1F5-HC + 3E5-LC; chimeric, human constant regions
B5: C92 (antibody, V domains shown)
VH: EVQLQQSGPELVKPGASVKISCKTSGYTFIDFNMHWVKQSHGKSLEWIGYIYPYNGDVVYNQNFTNKATLTVDSSSSTAYMELRRVTSEDSAIYYCAREGLGGYWGQGTTLTVSS
VL: DIVLTQSPDSLAVSLGQRATISCKASQNIDYGGYSYMNWYQQKPGQPPKVLIYSVFNLESGIPARFSGSGSGTDFTLTIHPVEEEDAATYYCQQSNEAPYTFGGGTKLEIR
notes: 1F5-HC + 3H10-LC2; chimeric, human constant regions
B6: C51 (antibody, V domains shown)
VH: EVQLQQSGPEVVKPGASVRISCQASGYTFTDYNMHWVKQSHGKSLEWIGYIFPYNGVAVYNRKFRSKATLIIDKSSTTAYMELRSLTSEDSAVYYCAREGLGGYWGQGTTLTVSS
VL: DIVLTQSPASLAVSLGQRATISCKASQNIDFDGYAYMNWYQHKPGQPPRVLIYSVFNLESGIPARFSGSGSGTDFTLNIHPVEEEDAATYYCQQSHEVPYTFGGGTNLEIK
notes: 1B2-HC + 1F5-LC1; chimeric, human constant regions
B7: C125 (antibody, V domains shown)
VH: EVQLQQSGPELVKPGASVKISCKASGYTFTDYNMHWVKQSHGKSLEWIGNIYPYNGGTVYNQKFNNKATLTVHTSSSTAYMDLRSLTSDDSAVYYCAREGLGGYWGQGTTLTVSS
VL: DVVLTQSPTSLAVSLGQRATISCQASQNIDGNTYMNWYQQKPGQPPKVLIYSIFNLESGIPARFSGSGSGTHFTLTIHPVEEEDAATYYCQQSNDYPYTFGGGTKLEIK
notes: 2B8-HC1 + 2B8-LC2; chimeric, human constant regions
B8: C276 (antibody, V domains shown)
VH: EVQLQQSGPELVKPGASVKISCKTSGYTFTDYNMHWVKQSHGKSLEWIGYISPYNGGTAYNQKFKFKSTLTVDTSSSTAYMELRSLTSEDSAVYYCAREGLGGYWGQGTTLTVSS
VL: DIVLTQSPDSLAVSLGQRATISCKASQNIDYGGYSYMNWYQQKPGQPPKVLIYSVFNLESGIPARFSGSGSGTDFTLTIHPVEEEDAATYYCQQSNEAPYTFGGGTKLEIR
notes: 3E5-HC + 3H10-LC2; chimeric, human constant regions
B9: C258 (antibody, V domains shown)
VH: EVQLQQSGPELVKPGASVKISCKTSGYTFTDYNMHWVKQSHGKSLEWIGYISPYNGGTAYNQKFKFKSTLTVDTSSSTAYMELRSLTSEDSAVYYCAREGLGGYWGQGTTLTVSS
VL: DIVLTQSPASLAVSLGQRATISCKASQNIDFDGYAYMNWYQHKPGQPPRVLIYSVFNLESGIPARFSGSGSGTDFTLNIHPVEEEDAATYYCQQSHEVPYTFGGGTNLEIK
notes: 3E5-HC + 1F5-LC1; chimeric, human constant regions
B10: C350 (antibody, V domains shown)
VH: EVQLQQSGPELVQPGASVKISCKASGYTFTDYNMHWVKQSHGESLEWIGYIYPYNGHTVYNQKFRNKATMTVDSSSSTAYMDLRSLTSEDSAVYYCAKEGLGGYWGQGTTLTVSS
VL: DIVLTQSPASLAVSLGQRATISCKASQNIDFDGYAYMNWYQHKPGQPPRVLIYSVFNLESGIPARFSGSGSGTDFTLNIHPVEEEDAATYYCQQSHEVPYTFGGGTNLEIK
notes: 3H10-HC + 1F5-LC1; chimeric, human constant regions
B11: C263 (antibody, V domains shown)
VH: EVQLQQSGPELVKPGASVKISCKTSGYTFTDYNMHWVKQSHGKSLEWIGYISPYNGGTAYNQKFKFKSTLTVDTSSSTAYMELRSLTSEDSAVYYCAREGLGGYWGQGTTLTVSS
VL: DVVLTQSPTSLAVSLGQRATISCQASQNIDGNTYMNWYQQKPGQPPKVLIYSIFNLESGIPARFSGSGSGTHFTLTIHPVEEEDAATYYCQQSNDYPYTFGGGTKLEIK
notes: 3E5-HC + 2B8-LC2; chimeric, human constant regions
B12: C138 (antibody, V domains shown)
VH: EVQLQQSGPELVKPGASVKISCKASGYTFTDYNMHWVKQSHGKSLEWIGNIYPYNGGTVYNQKFNNKATLTVHTSSSTAYMDLRSLTSDDSAVYYCAREGLGGYWGQGTTLTVSS
VL: DIVLTQSPDSLAVSLGQRATISCKASQNIDYGGYSYMNWYQQKPGQPPKVLIYSVFNLESGIPARFSGSGSGTDFTLTIHPVEEEDAATYYCQQSNEAPYTFGGGTKLEIR
notes: 2B8-HC1 + 3H10-LC2; chimeric, human constant regions
B13: C120 (antibody, V domains shown)
VH: EVQLQQSGPELVKPGASVKISCKASGYTFTDYNMHWVKQSHGKSLEWIGNIYPYNGGTVYNQKFNNKATLTVHTSSSTAYMDLRSLTSDDSAVYYCAREGLGGYWGQGTTLTVSS
VL: DIVLTQSPASLAVSLGQRATISCKASQNIDFDGYAYMNWYQHKPGQPPRVLIYSVFNLESGIPARFSGSGSGTDFTLNIHPVEEEDAATYYCQQSHEVPYTFGGGTNLEIK
notes: 2B8-HC1 + 1F5-LC1; chimeric, human constant regions
B14: C131 (antibody, V domains shown)
VH: EVQLQQSGPELVKPGASVKISCKASGYTFTDYNMHWVKQSHGKSLEWIGNIYPYNGGTVYNQKFNNKATLTVHTSSSTAYMDLRSLTSDDSAVYYCAREGLGGYWGQGTTLTVSS
VL: DIVLTQSPASLAVSLGQRATISCKASQNIDYDGYTYLNWYQQKPGQPPKVLIYSIFNLESGIPARFSGSGSGTDFTLNIHPVEEEDAATYYCQQSNEVPYTFGGGTKLEIK
notes: 2B8-HC1 + 3E5-LC; chimeric, human constant regions

Experiments:
Biotin-huCGRPaSA [1] = molecular target: T1, Biotin-huCGRPaSA; assay: ELISA, purified antibody; relative to reference 47-RM-20190815
Procedure: Streptavidin was diluted to […] by using PBS (Hyclone) and added into a plate at 100 μL/well. The plate was incubated in a thermostat incubator at 37° C. for 90 min and then washed. 2% BSA was added to the plate at 200 μL/well, and the plate was incubated in the thermostat incubator at 37° C. for 90 min and washed. Biotin-huCGRPaSA was diluted to 2.0 μg/mL with 2% BSA and added into the plate at 100 μL/well, and the plate was incubated in the thermostat incubator at 37° C. for 60 min. The chimeric antibodies in Table 3 and reference antibody (47-RM-20190815) were diluted to 1000 ng/ml with a diluent (2% BSA) and serially 10-fold diluted to 1 ng/mL. All the chimeric antibody solutions and the reference antibody solution were added into plates at 100 μL/well, and the plates were incubated in a thermostat incubator at 37° C. for 60 min and washed. An HRP-conjugated mouse anti-human antibody IgG4 (manufacturer: Southern Biotech, Cat. No. 9200-05; Fc specificity) was diluted 5000-fold with 2% BSA and added into the plates at 100 μL/well, and the plates were incubated in the thermostat incubator at 37° C. for 60 min and washed. 0.1 mg/mL chromogenic reagent TMB was carefully added at 100 μL/well to avoid bubbles, and the system was incubated at 37° C. for 5 min away from light for chromogenic reaction. Finally, a 2 M hydrochloric acid solution was added at 100 μL/well to stop the reaction while avoiding bubbles, and the plates were read on a microplate reader within 10 min (the detection wavelength was 450 nm; the reference wavelength was 620 nm). EC₅₀ was fit by using a four-parameter logistic regression (4PL) model.

CGRP antigen [2] = assay: cell-based or functional assay
Biotin-huCGRPaSA [3] = molecular target: T1, Biotin-huCGRPaSA; assay: ELISA, transfection supernatant, biotin-CGRP on streptavidin
Procedure: Streptavidin was diluted to 0.5 μg/mL by using PBS (Hyclone) and added into a plate at 100 μL/well. The plate was incubated in a thermostat incubator at 37° C. for 90 min and then washed. 2% BSA was added to the plate at 200 μL/well, and the plate was incubated in the thermostat incubator at 37° C. for 90 min and washed. Biotin-huCGRPaSA was diluted to 2.0 μg/mL with 2% BSA and added into the plate at 100 μL/well, and the plate was incubated in the thermostat incubator at 37° C. for 60 min. The reference antibody (47-RM) was diluted to 2500 ng/ml with a diluent (2% BSA) and serially 4-fold diluted to 0.15 ng/mL, and the chimeric antibodies were diluted with a cell supernatant stock solution. All the chimeric antibody solutions and the reference antibody solution were added into plates at 80 μL/well, and the plates were incubated in a thermostat incubator at 37° C. for 60 min and washed. An HRP-conjugated mouse anti-human antibody IgG4 (manufacturer: Southern Biotech, Cat. No. 9200-05; Fc specificity) was diluted 5000-fold with 2% BSA and added into the plates at 100 μL/well, and the plates were incubated in the thermostat incubator at 37° C. for 60 min and washed. 0.1 mg/mL chromogenic reagent TMB was carefully added at 100 μL/well to avoid bubbles, and the system was incubated at 37° C. for 10 min away from light for chromogenic reaction. Finally, a 2 M hydrochloric acid solution was added at 100 μL/well to stop the reaction while avoiding bubbles, and the plates were read on a microplate reader within 10 min (the detection wavelength was 450 nm; the reference wavelength was 620 nm).

CGRP antigen [4] = assay: cell-based or functional assay; remark: listed apart in the source

Row | Binder | Relative activity (%) (Biotin-huCGRPaSA [1]) | Relative binding activity (%) vs Ref(Teva) (CGRP antigen [2]) | OD value (Biotin-huCGRPaSA [3]) | Relative binding activity (%) vs Ref(Teva) (CGRP antigen [4])
1 | B1 | 60.4% | 93% | 3.12 OD | –
2 | B2 | 41.9% | 98.4% | 3.03 OD | –
3 | B3 | 221% | 42.2% | 3.07 OD | –
4 | B4 | 56.7% | – | 3.11 OD | 111%
5 | B5 | 68.5% | – | 3.09 OD | 108%
6 | B6 | 56% | – | 3.04 OD | –
7 | B7 | 62.9% | 76.4% | 3.08 OD | –
8 | B8 | 84.1% | – | 3.01 OD | –
9 | B9 | 99.8% | – | 3.12 OD | 117%
10 | B10 | 108% | – | 3 OD | –
11 | B11 | 111% | – | 3.02 OD | –
12 | B12 | 136% | – | 3.06 OD | –
13 | B13 | 30.6% | – | 3.09 OD | 50.3%
14 | B14 | 116% | – | 3.02 OD | –
